Experimental data published in article PMC12667410 (Cell chemical biology, 2024).

How the values were obtained:
SIRT5 = biological target: T1, SIRT5 (Homo sapiens, UniProt Q9NXA8); assay: SIRTify cell-free assay, SIRT5; assay type: biochemical; settings: ratio of IC50 values
T1 sequence (Q9NXA8 37-310): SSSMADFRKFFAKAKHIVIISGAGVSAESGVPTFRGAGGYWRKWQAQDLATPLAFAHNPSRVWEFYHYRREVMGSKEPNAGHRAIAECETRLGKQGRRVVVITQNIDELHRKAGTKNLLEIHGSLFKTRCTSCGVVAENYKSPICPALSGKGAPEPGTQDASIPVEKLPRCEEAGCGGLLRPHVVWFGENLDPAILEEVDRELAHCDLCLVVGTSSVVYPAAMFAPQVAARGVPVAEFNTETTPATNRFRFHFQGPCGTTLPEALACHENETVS

[1] = biological target: LgBiT Protein (LgBiT subunit of the NanoBiT luciferase; large, truncated fragment of NanoLuc) (Oplophorus gracilirostris); assay: split reporter

lower IC50 for SIRT5 deglutarylase compared to desuccinylase activity (SIRT5) | fold decrease in luminescent signal against unmodified p86 [1] | fold reduced affinity compared to p86 [1] | Compound
 | 5.8 fold | 175 fold | p86-Acetyl8,9: H2N-VSGWRLF(KAc)(KAc)IS-OH (peptide)
 | 1.7 fold |  | p86-Succinyl9: H2N-VSGWRLFK(KSuc)IS-OH (peptide)
 | 1.1 fold |  | p86-Acetyl8: H2N-VSGWRLF(KAc)KIS-OH (peptide)

Further lines, the compound ahead of its results:

Compound | lower IC50 for SIRT5 deglutarylase compared to desuccinylase activity (SIRT5) | fold decrease in luminescent signal against unmodified p86 [1] | fold reduced affinity compared to p86 [1]
O=C(O)CCNC(=S)NCCCC[C@H](NS(=O)(=O)c1cccc(F)c1)C(=O)N[C@@H](Cc1c[nH]c2ccccc12)C(=O)NC1CCC1 [SIRT5 Inhibitor I (S5I1)] | approximately 3 fold |  | 
p86-Succinyl8: H2N-VSGWRLF(KSuc)KIS-OH (peptide) |  | 1.7 fold | 
p86-Acetyl9: H2N-VSGWRLFK(KAc)IS-OH (peptide) |  | 1.1 fold | 
p86-Succinyl8,9: H2N-VSGWRLF(KSuc)(KSuc)IS-OH (peptide) |  | 7.5 fold | 
